The values that follow come from paper PMC4506568, “Targeting a Dynamic Protein–Protein Interaction: Fragment Screening against the Malaria Myosin A Motor Complex” (Chemmedchem, 2014).

The Kd is a measure of binding affinity in units of concentration. The low end stands for a tighter complex, the high end for a looser complex. As a reminder, the ΔTm is the shift of the melting midpoint relative to a reference.

Holding throughout (conditions): both partners purified
Data set [1] concerns the target T1, Plasmodium falciparum myosin A tail domain interacting protein, residues 61–204 (PfMTIPΔ60) (Plasmodium falciparum, UniProt Q8I4W8 61-204).
T1 construct: source: 15N-labeled for NMR; not shown: His tag, N-terminal, kept
T1 sequence: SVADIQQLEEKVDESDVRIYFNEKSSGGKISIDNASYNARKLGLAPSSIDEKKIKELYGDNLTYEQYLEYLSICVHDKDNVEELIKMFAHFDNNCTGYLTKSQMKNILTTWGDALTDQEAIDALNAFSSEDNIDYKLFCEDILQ
The experiment in a line: ITC; 303 K; cell with about 200 μL of 20 μM PfMTIPΔ60 in buffer A (20 mM HEPES pH 7.5, 50 mM NaCl, 1 mM TCEP); peptide added in 2 μL injections from 250 μM; single site fit; n=1. (In general: Isothermal titration calorimetry measures the heat released or taken up as one component is titrated into another.)

The target in data set [2] is T1, Plasmodium falciparum myosin A tail …. The experiment in a line: differential scanning fluorimetry; 5 μM PfMTIPΔ60 with 200 μM peptide in buffer A (20 mM HEPES pH 7.5, 50 mM NaCl, 1 mM TCEP), 10× SYPRO Orange, 15–80 °C. (Differential scanning fluorimetry follows unfolding on heating by fluorescence.)
Data set [3] shares this target. The experiment in a line: protein-detected NMR (1H,15N-HSQC); preformed complex of 100 μM 15N-labeled PfMTIPΔ60 with PfmyoA(799–818), buffer B (20 mM MOPS pH 7.0, 50 mM NaCl, 1 mM TCEP), 10 % D2O, 303 K; fragments 8 or 3 added.

Where no end group is shown, it is not given here. 8e = not defined here

B1: peptide–fragment chimera3 (fragment 8 functionality – glycine spacer – myoA tail from Ser 803) (peptide)
peptide: 8e-GSLLRVQAHIRKKMVAQ
modifications: reading uncertain
notes: myosin A (PfmyoA) C-terminal tail, Plasmodium falciparum, PfmyoA(799–818) truncated at its N-terminal end to Ser 803; that chimera3 begins at Ser 803 follows from the order of the list (Leu 805, Leu 804, Ser 803); source: synthetic peptide (Fmoc-based solid-phase peptide synthesis)
Turning to B1, binding in data set [1] was characterised by a dissociation constant (Kd) of 52 nM. The “Tm of the complex” value in data set [2] stood at 55.8 °C.

B2: PfmyoA(799–818) (peptide)
peptide: KNIPSLLRVQAHIRKKMVAQ
notes: myosin A (PfmyoA) C-terminal tail, Plasmodium falciparum, residues 799–818; also called myoA tail; myoA tail peptide
For the molecule B2, the binding result in data set [3] is “binds”.

B3: peptide–fragment chimera1 (fragment 8 functionality – glycine spacer – myoA tail from Leu 805) (peptide)
peptide: 8e-GLRVQAHIRKKMVAQ
modifications: reading uncertain
notes: myosin A (PfmyoA) C-terminal tail, Plasmodium falciparum, PfmyoA(799–818) truncated at its N-terminal end to Leu 805; called the shortest chimera; source: synthetic peptide (Fmoc-based solid-phase peptide synthesis)
Turning to B3, the “Tm of the complex” value in data set [2] came out at 47.8 °C.

B4: peptide–fragment chimera2 (fragment 8 functionality – glycine spacer – myoA tail from Leu 804) (peptide)
peptide: 8e-GLLRVQAHIRKKMVAQ
modifications: reading uncertain
notes: myosin A (PfmyoA) C-terminal tail, Plasmodium falciparum, PfmyoA(799–818) truncated at its N-terminal end to Leu 804; source: synthetic peptide (Fmoc-based solid-phase peptide synthesis)
As to B4, the “Tm of the complex” value in data set [2] amounted to 53.4 °C.

B5: peptide PfmyoA(803–818) (peptide)
peptide: SLLRVQAHIRKKMVAQ
notes: myosin A (PfmyoA) C-terminal tail, Plasmodium falciparum, residues 803–818; also called PfmyoA tail peptide; positive control PfmyoA tail peptide
For the molecule B5, the ΔTm in data set [2] was found to be 15.3 °C.
